Test results as given in IntAct's records for PubMed 11168407.

B1: Serine acetyltransferase 3, mitochondrial (Arabidopsis thaliana (Mouse-ear cress)), Q39218 (parent)
chain: MLPVTSRRHFTMSLYMLRSSSPHINHHSFLLPSFVSSKFKHHTLSPPPSPPPPPPMAACIDTCRTGKPQISPRDSSKHHDDESGFRYMNYFRYPDRSSFNGTQTKTLHTRPLLEDLDRDAEVDDVWAKIREEAKSDIAKEPIVSAYYHASIVSQRSLEAALANTLSVKLSNLNLPSNTLFDLFSGVLQGNPDIVESVKLDLLAVKERDPACISYVHCFLHFKGFLACQAHRIAHELWTQDRKILALLIQNRVSEAFAVDFHPGAKIGTGILLDHATAIVIGETAVVGNNVSILHNVTLGGTGKQCGDRHPKIGDGVLIGAGTCILGNITIGEGAKIGAGSVVLKDVPPRTTAVGNPARLLGGKDNPKTHDKIPGLTMDQTSHISEWSDYVI

Variants of: B1
Settings: with cyskm_arath OASC

| Variant | effect of a mutation on the interaction |
| --- | --- |
| MLPVTSRRHFTMSLYMLRSSSPHINHHSFLLPSFVSSKFKHHTLSPPPSPPPPPPMAACIDTCRTGKPQISPRDSSKHHDDESGFRYMNYFRYPDRSSFNGTQTKTLHTRPLLEDLDRDAEVDDVWAKIREEAKSDIAKEPIVSAYYHASIVSQRSLEAALANTLSVKLSNLNLPSNTLFDLFSGVLQGNPDIVESVKLDLLAVKERDPACISYVHCFLHFKGFLACQAHRIAHELWTQDRKILALLIQNRVSEAFAVDFHPGAKIGTGILLDHATAIVIGETAVVGNNVSILHNVTLGGTGKQCGDRAPKIGDGVLIGAGTCILGNITIGEGAKIGAGSVVLKDVPPRTTAVGNPARLLGGKDNPKTHDKIPGLTMDQTSHISEWSDYVI [H309A] | increasing interaction |
| MLPVTSRRHFTMSLYMLRSSSPHINHHSFLLPSFVSSKFKHHTLSPPPSPPPPPPMAACIDTCRTGKPQISPRDSSKHHDDESGFRYMNYFRYPDRSSFNGTQTKTLHTRPLLEDLDRDAEVDDVWAKIREEAKSDIAKEPIVSAYYHASIVSQRSLEAALANTLSVKLSNLNLPSNTLFDLFSGVLQGNPDIVESVKLDLLAVKERDPACISYVHCFLHFKGFLACQAHRIAHELWTQDRKILALLIQNRVSEAFAVDFHPGAKIGTGILLDHATAIVIGETAVVGNNVSILHNVTLGGTGKQCGDRHPKIGDGVLIGAGTCILGNITIGEGAKIGAGSVVLKDVPPRTTAAGNPARLLGGKDNPKTHDKIPGLTMDQTSHISEWSDYVI [V353A] | disrupting interaction |

Variants of: B1
Settings: with cyskm_arath OASC
Remark: another data set of the same source

| Variant | effect of a mutation on the interaction |
| --- | --- |
| MLPVTSRRHFTMSLYMLRSSSPHINHHSFLLPSFVSSKFKHHTLSPPPSPPPPPPMAACIDTCRTGKPQISPRDSSKHHDDESGFRYMNYFRYPDRSSFNGTQTKTLHTRPLLEDLDRDAEVDDVWAKIREEAKSDIAKEPIVSAYYHASIVSQRSLEAALANTLSVKLSNLNLPSNTLFDLFSGVLQGNPDIVESVKLDLLAVKERDPACISYVHCFLHFKGFLACQAHRIAHELWTQDRKILALLIQNRVSEAFAVDFHPGAKIGTGILLDHATAIVIGETAVVGNNVSILHNVTLGGTGKQCGDRHPKIGDGVLIGAGTCILGNITIGEGAKIGAGSVVLKDVPPRTTAEGNPARLLGGKDNPKTHDKIPGLTMDQTSHISEWSDYVI [V353E] | decreasing interaction |
| MLPVTSRRHFTMSLYMLRSSSPHINHHSFLLPSFVSSKFKHHTLSPPPSPPPPPPMAACIDTCRTGKPQISPRDSSKHHDDESGFRYMNYFRYPDRSSFNGTQTKTLHTRPLLEDLDRDAEVDDVWAKIREEAKSDIAKEPIVSAYYHASIVSQRSLEAALANTLSVKLSNLNLPSNTLFDLFSGVLQGNPDIVESVKLDLLAVKERDPACISYVHCFLHFKGFLACQAHRIAHELWTQDRKILALLIQNRVSEAFAVDFHPGAKIGTGILLDHATAIVIGATAVVGNNVSILHNVTLGGTGKQCGDRHPKIGDGVLIGAGTCILGNITIGEGAKIGAGSVVLKDVPPRTTAVGNPARLLGGKDNPKTHDKIPGLTMDQTSHISEWSDYVI [E282A] | decreasing interaction |
